A short description of data set [1]: Emission value of secretion-expressed luciferase in COS-7 culture medium, coelenterazine substrate. The following applies: for emission values (rank order): Experiment 5. Format: biochemical. The method, then:
(§1) • (1) COS-7 cells derived from the kidney of African green monkey were inoculated in a 24-well dish, and on the next day, subconfluency was attained. • (2) 25 μL of Opti-MEM (Thermo Fisher Scientific™), 400 ng (2 μL) of the plasmid, and 1 μL of P3000 (Invitrogen™, Waltham, MA) were mixed. • (3) 25 μL of Opti-MEM and 1 μL of lipofectoamine 3000 (Invitrogen™) were mixed. • (4) (2) and (3) were mixed together, followed by incubation at room temperature for 5 minutes. • (5) The mixture was added to the medium of (1). • (6) 500 μL of Dulbecco's modified Eagle's medium was added, followed by culturing the cells at 37° C. for 1 day and then collecting the medium. The medium contained secretion-expressed luciferase. • (7) To 100 μL of the medium, coelenterazine was added as a substrate at a final concentration of 5 μM, followed by measuring the emission value by using Enspire multi-mode plate reader (PerkinElmer™, Waltham, MA).
By the same manner as in Experiment 2, the emission value was measured.
The emission value was measured in the same manner as in Experiment 2 except that the final concentration of coelenterazine was changed to 0.5 μM. […] The emission value was measured in the same manner as in Experiment 2 except that the final concentration of coelenterazine was changed to 5 μM.

The nature of data set [2]: Stability of protein terminus: Western blot detection of Flag-tag and His-tag in culture supernatant. The following applies: secretion-expressed luciferase in COS-7 culture supernatant; Western blotting. From the text:
In the same manner as in Experiment 2, the plasmid was transfected into COS-7 cells and culture supernatant was collected. Flag-tag added to the N terminus of each secretion-expressed luciferase and His-tag added to the C terminus thereof were detected by Western blotting (SDS-PAGE, Mini-PROTEAN TGX Gel StainFree 4-15% (Bio-Rad™, Hercules, CA)) (FIG. 17). The antibodies used were Anti 6×Histidine, Monoclonal Antibody (9C11), Peroxidase Conjugated (manufactured by FUJIFILM Wako Pure Chemical Corporation, 1:1000) and Monoclonal ANTI-FLAG (R) M2-Peroxidase (HRP) antibody produced in mouse, clone M2 (manufactured by Sigma-Aldrich™, St. Louis, MO, 1/1000), respectively, and detection was performed with Amesham Imager 680 (Cytiva™, Marlborough, MA).

Data set [3] can be described thus: Emission value of secretion-expressed luciferase in COS-7 culture medium, furimazine substrate. The data set is classed as biochemical. The following applies: Experiment 5; furimazine in the concentration recommended by the manufacturer. The method, then: as §1
The emission value was measured in the same manner as in Experiment 2 except that furimazine, which was available from Promega™ as a NanoLuc® substrate, was used as a substrate in the concentration recommended by the manufacturer.

Data set [4] is described as follows: Emission value of secretion-expressed luciferase in COS-7 culture medium, coelenterazine h substrate. Format: biochemical. The following applies: Experiment 5. The method, then: as §1
The emission value was measured in the same manner as in Experiment 2 except that coelenterazine h was used as a substrate in a final concentration of 5 μM. […] The emission value was measured in the same manner as in Experiment 2 except that coelenterazine h was used as a substrate in a final concentration of 25 μM.

A short description of data set [5]: Measurement of specific activity (enzyme concentrations adjusted by Western blot signal). Format: biochemical. The method, then:
The specific activities of NanoLuc®, ALuc30 wt, and picALuc30 were measured, with their enzyme concentrations adjusted based on the Western blot signal intensity obtained in Experiment 6.
In general terms: A western blot detects proteins with antibodies after separation by electrophoresis.

Data set [6] in a line: Emission activity of divided enzyme (Escherichia coli lysates, single or mixed). Format: biochemical. Conditions: Experiment 11-2, coelenterazine 5 μM, Enspire multi-mode plate reader. The source says: picALuc30 was divided to prepare plasmids (pET32 vectors) for expression of polypeptides from position 4 to 22, from position 23 to 120, from position 4 to 47, from position 48 to 120, from position 4 to 77, from position 80 to 120, from position 4 to 90, and from position 91 to 120 of the amino acid sequence in SEQ ID NO: 51. In the same manner as in Experiment 10, the plasmid was introduced into Escherichia coli SHuffle T7 Express lysY, and from the cultured bacterial cells, a lysate was obtained. To 100 μL of a single lysate or a mixture of lysates as specified in FIG. 25, coelenterazine was added as a substrate at a final concentration of 5 μM, followed by measuring the emission value by using an Infinite (registered trademark) 200 PRO plate reader (TECAN). Because the lysate contained luciferase fragments at high concentrations, it was expected that when fragment-containing lysates were mixed, two types of fragments were highly likely to encounter each other and these two fragments could form the original luciferase structure.
picALuc30 was divided to further prepare plasmids (pET32 vectors) for expression of polypeptides from position 4 to 58, from position 4 to 64, from position 4 to 72, from position 65 to 120, from position 73 to 120, and from position 104 to 120 of the amino acid sequence in SEQ ID NO: 51. In Experiment 11-2, emission values were measured in the same manner as in Experiment 11-1 except that an Enspire multi-mode plate reader (PerkinElmer™) was used for emission value detection.

Where [7] appears, read: Experiment 2, coelenterazine 5 μM, medium of transfected COS-7 cells.

Results on 10 molecules are retold here after patent US12578329B2, “Reagent kit containing polypeptide for use in detection of intermolecular interactions” (SHIMADZU CORPORATION, priority 2021, dated 2026).

B1: picALuc16: SEQ ID NO: 52; ALuc16 with deletion of N terminus and C terminus, corresponding to picALuc30 (protein)
chain: KLPGKKLPLEVLKELEANAQKAGCTRGCLICLSHIKCTAKMKKWLPGRCESWEGDKETGQGGIGEAIVDIPEIPGFKDLEPMEQFIAQVDLCVDCTTGCLKGLANVKCSDLLKKWLPSRCAT
modifications: picALuc16
notes: ALuc16 with deletion of N terminus and C terminus, corresponding to picALuc30
For B1, in data set [1] (setting [7]), the emission value entry was “sufficiently high”.

B2: ALuc30 wt: artificial luciferase; positions 20 to 212 of ALuc30 (SEQ ID NO: 28) without a signal sequence; about 21 kDa (protein)
chain: HHHHHHHHDIVGVEGKFGTTDLETDLFTIVEDMNVISRDTDVDANRADRGRRGKLPGKKLPLEVLKELEANAQKAGCTRGCLICLSHIKCTAKMKKWLPGRCESWEGDKETGQGGIGEAIVDIPEIPGFKELAPMEQFIAQVDLCADCTTGCLKGLANVKCSALLKKWLPSRCAGFADKIQAQVDTIKGAGGS
modifications: ALuc30
notes: artificial luciferase; about 21 kDa
Take B2: the “stability of protein termini (Flag-tag and His-tag detection)” value in data set [2] is “both termini remaining”. The emission value result in data set [3] is “low as compared to NanoLuc® and TurboLuc™”. The “emission values (rank order)” value in data set [4] (coelenterazine h 5 μM) was “TurboLuc™=ALuc30 wt>>NanoLuc®>picALuc30>GLuc”; in data set [4] (coelenterazine h 25 μM) it was “picALuc30>>NanoLuc®=TurboLuc™=ALuc30 wt>>GLuc”; in data set [1] (coelenterazine 0.5 μM), “NanoLuc®>>picALuc30>TurboLuc™>ALuc30 wt>GLuc”; in data set [1] (coelenterazine 5 μM), “ALuc30 wt=picALuc30>NanoLuc®>TurboLuc™>GLuc”. The maximum emission value result in data set [5] (Experiment 7) is given as “same maximum emission value as NanoLuc®”. Moreover, the specific activity entry in data set [5] (coelenterazine or coelenterazine h as substrate) was “the same as the specific activity of picALuc”.

B3: position 4 to 58 and position 23 to 120: combination of polypeptides of these positions of SEQ ID NO: 51 (SEQ ID NOs: 78 and 81) (protein)
chain 1: GKKLPLEVLKELEANAQKAGCTRGCLICLSHIKCTAKMKKWLPGRCESWEGDKET
chain 2: GCTRGCLICLSHIKCTAKMKKWLPGRCESWEGDKETGQGGIGEAIVDIPEIPGFKELAPMEQFIAQVDLCADCTTGCLKGLANVKCSALLKKWLPSRC
modifications: part of picALuc30
With B3, in data set [6], the emission value result is reported as “high emission value”.

B4: position 4 to 72 and position 23 to 120: combination of polypeptides of these positions of SEQ ID NO: 51 (SEQ ID NOs: 80 and 81) (protein)
chain 1: GKKLPLEVLKELEANAQKAGCTRGCLICLSHIKCTAKMKKWLPGRCESWEGDKETGQGGIGEAIVDIPE
chain 2: B3 chain 2
modifications: part of picALuc30
B4: in data set [6], the emission value entry is on record as “high emission value”.

B5: picALuc48: SEQ ID NO: 53; ALuc48 with deletion of N terminus and C terminus, corresponding to picALuc30 (protein)
chain: HGGLPGKKMPLEVLLELEANAQRAGCTRGCLICLSKIKCTAKMKKWLPGRCESWAGDKETGQGGITEEETVDIPEIPGFKDLEPMEQFIAQVDLCVDCTTGCLKGLANVKCSDLLKKWLPSRCAT
modifications: picALuc48
notes: ALuc48 with deletion of N terminus and C terminus, corresponding to picALuc30
Regarding B5, the emission value entry in data set [1] (setting [7]) is listed as “sufficiently high”.

B6: ALuc30Δloop2N1: SEQ ID NO: 54; ALuc30 wt with N terminus (1 to 49) and loop 2 (122 to 128) deleted, Gly-Ser inserted; 14 kDa (protein)
chain: RGRRGKLPGKKLPLEVLKELEANAQKAGCTRGCLICLSHIKCTAKMKKWLPGRCESWEGDKETGQGGIGEAIVGSFKELAPMEQFIAQVDLCADCTTGCLKGLANVKCSALLKKWLPSRCAGFADKIQAQVDTIKGAGGS
modifications: ALuc30_del_loop2N1
notes: ALuc30 wt with N terminus (1 to 49) and loop 2 (122 to 128) deleted, Gly-Ser inserted; 14 kDa
With B6, in data set [1] (Experiment 4, same manner as Experiment 2 (coelenterazine 5 μM)), the emission value entry is recorded as “about half the emission value of ALuc30ΔN1”.

B7: position 4 to 72 and position 73 to 120: combination of polypeptides of these positions of SEQ ID NO: 51 (SEQ ID NOs: 80 and 84) (protein)
chain 1: B4 chain 1
chain 2: IPGFKELAPMEQFIAQVDLCADCTTGCLKGLANVKCSALLKKWLPSRC
modifications: part of picALuc30
For the molecule B7, in data set [6], the emission value result is “high emission value”.

B8: position 4 to 72 and position 104 to 120: combination of polypeptides of these positions of SEQ ID NO: 51 (SEQ ID NOs: 80 and 85) (protein)
chain 1: B4 chain 1
chain 2: ANVKCSALLKKWLPSRC
modifications: part of picALuc30
Take B8: the emission value result in data set [6] is on record as “high emission value”.

B9: position 4 to 64 and position 65 to 120: combination of polypeptides of these positions of SEQ ID NO: 51 (SEQ ID NOs: 79 and 83) (protein)
chain 1: GKKLPLEVLKELEANAQKAGCTRGCLICLSHIKCTAKMKKWLPGRCESWEGDKETGQGGIG
chain 2: EAIVDIPEIPGFKELAPMEQFIAQVDLCADCTTGCLKGLANVKCSALLKKWLPSRC
modifications: part of picALuc30
On to B9, for which the emission value entry in data set [6] is “high emission value”.

B10: position 4 to 64 and position 73 to 120: combination of polypeptides of these positions of SEQ ID NO: 51 (SEQ ID NOs: 79 and 84) (protein)
chain 1: B9 chain 1
chain 2: B7 chain 2
modifications: part of picALuc30
On to B10, for which, in data set [6], the emission value result was “high emission value”.
